# Laboratory results from patent publication US20160272683A1 (Novo Nordisk, published 2016).
# Numbered stars: 1 amine (or outer) side, 2 acyl side, 3 side chain; on linkers, the order of the positions; unused ones are H or OH. Side chains are listed from the residue outwards. Ends that are not written are not given here. * marks the point of attachment. C20 diacid = O=C(O)CCCCCCCCCCCCCCCCCCC(=O)*; C18 diacid = O=C(O)CCCCCCCCCCCCCCCCC(=O)*; γGlu = O=C(O)[C@H](CCC(=O)[*:2])N[*:1]
# T1: human calcitonin receptor (human, UniProt P30988 25-474)
# T1 sequence (looked up): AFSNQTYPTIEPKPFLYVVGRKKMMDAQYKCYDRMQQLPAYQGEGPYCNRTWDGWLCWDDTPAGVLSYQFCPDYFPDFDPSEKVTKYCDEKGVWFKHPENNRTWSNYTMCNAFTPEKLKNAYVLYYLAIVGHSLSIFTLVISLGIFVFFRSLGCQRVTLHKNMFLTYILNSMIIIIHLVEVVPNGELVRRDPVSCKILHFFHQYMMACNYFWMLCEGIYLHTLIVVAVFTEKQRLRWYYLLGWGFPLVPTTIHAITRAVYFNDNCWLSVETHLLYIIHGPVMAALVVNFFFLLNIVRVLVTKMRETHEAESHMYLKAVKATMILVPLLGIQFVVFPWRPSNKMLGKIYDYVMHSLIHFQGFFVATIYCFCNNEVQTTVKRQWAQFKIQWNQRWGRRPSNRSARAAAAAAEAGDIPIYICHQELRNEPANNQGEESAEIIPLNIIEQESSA
# T2: human amylin 3(a) receptor (human calcitonin receptor co-expressed with RAMP-3) (human, UniProt P30988 25-474; O60896 24-148, limits assumed)
# T2 sequence (looked up) 1: T1 sequence (looked up)
# T2 sequence (looked up) 2: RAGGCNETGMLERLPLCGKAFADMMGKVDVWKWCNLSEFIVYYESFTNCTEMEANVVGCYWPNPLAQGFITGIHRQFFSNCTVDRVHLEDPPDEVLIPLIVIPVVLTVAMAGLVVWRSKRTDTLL
# B1: [N-terminal(C20 diacid-gGlu), des1, 4G, 15T, 21E, 23Y, 30S, 31G, 32T, 33Y]mimylin (peptide)
# peptide: {C20 diacid-γGlu}-ASGLSTAALGRLSTELHELETYPRTETGSGTY-NH2
# SMILES: CC(C)C[C@H](NC(=O)CNC(=O)[C@H](CO)NC(=O)[C@H](C)NC(=O)CC[C@H](NC(=O)CCCCCCCCCCCCCCCCCCC(=O)O)C(=O)O)C(=O)N[C@@H](CO)C(=O)N[C@H](C(=O)N[C@@H](C)C(=O)N[C@@H](C)C(=O)N[C@@H](CC(C)C)C(=O)NCC(=O)N[C@@H](CCCNC(=N)N)C(=O)N[C@@H](CC(C)C)C(=O)N[C@@H](CO)C(=O)N[C@H](C(=O)N[C@@H](CCC(=O)O)C(=O)N[C@@H](CC(C)C)C(=O)N[C@@H](Cc1c[nH]cn1)C(=O)N[C@@H](CCC(=O)O)C(=O)N[C@@H](CC(C)C)C(=O)N[C@@H](CCC(=O)O)C(=O)N[C@H](C(=O)N[C@@H](Cc1ccc(O)cc1)C(=O)N1CCC[C@H]1C(=O)N[C@@H](CCCNC(=N)N)C(=O)N[C@H](C(=O)N[C@@H](CCC(=O)O)C(=O)N[C@H](C(=O)NCC(=O)N[C@@H](CO)C(=O)NCC(=O)N[C@H](C(=O)N[C@@H](Cc1ccc(O)cc1)C(N)=O)[C@@H](C)O)[C@@H](C)O)[C@@H](C)O)[C@@H](C)O)[C@@H](C)O)[C@@H](C)O
# B2: [N-terminal(C18 diacid-gGlu), des1, 6T, 9V, 14E, 21T, 30T, 31G, 32T]mimylin (peptide)
# peptide: {C18 diacid-γGlu}-ASELTTAVLGRLEAELHELTTLPRTETGTGTP-NH2
# B3: [N-terminal(C20 diacid), des1, 4G, 15Q, 21Q, 23Y, 30S, 31G, 32T, 33Y]mimylin (peptide)
# peptide: {C20 diacid}-ASGLSTAALGRLSQELHELQTYPRTETGSGTY-NH2
# SMILES: CC(C)C[C@H](NC(=O)CNC(=O)[C@H](CO)NC(=O)[C@H](C)NC(=O)CCCCCCCCCCCCCCCCCCC(=O)O)C(=O)N[C@@H](CO)C(=O)N[C@H](C(=O)N[C@@H](C)C(=O)N[C@@H](C)C(=O)N[C@@H](CC(C)C)C(=O)NCC(=O)N[C@@H](CCCNC(=N)N)C(=O)N[C@@H](CC(C)C)C(=O)N[C@@H](CO)C(=O)N[C@@H](CCC(N)=O)C(=O)N[C@@H](CCC(=O)O)C(=O)N[C@@H](CC(C)C)C(=O)N[C@@H](Cc1c[nH]cn1)C(=O)N[C@@H](CCC(=O)O)C(=O)N[C@@H](CC(C)C)C(=O)N[C@@H](CCC(N)=O)C(=O)N[C@H](C(=O)N[C@@H](Cc1ccc(O)cc1)C(=O)N1CCC[C@H]1C(=O)N[C@@H](CCCNC(=N)N)C(=O)N[C@H](C(=O)N[C@@H](CCC(=O)O)C(=O)N[C@H](C(=O)NCC(=O)N[C@@H](CO)C(=O)NCC(=O)N[C@H](C(=O)N[C@@H](Cc1ccc(O)cc1)C(N)=O)[C@@H](C)O)[C@@H](C)O)[C@@H](C)O)[C@@H](C)O)[C@@H](C)O
# B4: [N-terminal(C18 diacid-gGlu), des1, 6T, 9V, 14T, 21E, 30T, 31G, 32T]mimylin (peptide)
# peptide: {C18 diacid-γGlu}-ASELTTAVLGRLTAELHELETLPRTETGTGTP-NH2
# SMILES: CC(C)C[C@H](NC(=O)[C@H](CCC(=O)O)NC(=O)[C@H](C)NC(=O)[C@@H](NC(=O)[C@H](CC(C)C)NC(=O)[C@H](CCCNC(=N)N)NC(=O)CNC(=O)[C@H](CC(C)C)NC(=O)[C@@H](NC(=O)[C@H](C)NC(=O)[C@@H](NC(=O)[C@@H](NC(=O)[C@H](CC(C)C)NC(=O)[C@H](CCC(=O)O)NC(=O)[C@H](CO)NC(=O)[C@H](C)NC(=O)CC[C@H](NC(=O)CCCCCCCCCCCCCCCCC(=O)O)C(=O)O)[C@@H](C)O)[C@@H](C)O)C(C)C)[C@@H](C)O)C(=O)N[C@@H](Cc1c[nH]cn1)C(=O)N[C@@H](CCC(=O)O)C(=O)N[C@@H](CC(C)C)C(=O)N[C@@H](CCC(=O)O)C(=O)N[C@H](C(=O)N[C@@H](CC(C)C)C(=O)N1CCC[C@H]1C(=O)N[C@@H](CCCNC(=N)N)C(=O)N[C@H](C(=O)N[C@@H](CCC(=O)O)C(=O)N[C@H](C(=O)NCC(=O)N[C@H](C(=O)NCC(=O)N[C@H](C(=O)N1CCC[C@H]1C(N)=O)[C@@H](C)O)[C@@H](C)O)[C@@H](C)O)[C@@H](C)O)[C@@H](C)O
# B5: [des1, 4G, 15Q, 21Q, 23Y, 30S, 31K(C20 diacid-gGlu), 32T, 33Y]mimylin (peptide)
# peptide: ASGLSTAALGRLSQELHELQTYPRTETGSK([γGlu-C20 diacid])TY-NH2
# modifications: N-terminus assumed
# SMILES: CC(C)C[C@H](NC(=O)CNC(=O)[C@H](CO)NC(=O)[C@H](C)N)C(=O)N[C@@H](CO)C(=O)N[C@H](C(=O)N[C@@H](C)C(=O)N[C@@H](C)C(=O)N[C@@H](CC(C)C)C(=O)NCC(=O)N[C@@H](CCCNC(=N)N)C(=O)N[C@@H](CC(C)C)C(=O)N[C@@H](CO)C(=O)N[C@@H](CCC(N)=O)C(=O)N[C@@H](CCC(=O)O)C(=O)N[C@@H](CC(C)C)C(=O)N[C@@H](Cc1c[nH]cn1)C(=O)N[C@@H](CCC(=O)O)C(=O)N[C@@H](CC(C)C)C(=O)N[C@@H](CCC(N)=O)C(=O)N[C@H](C(=O)N[C@@H](Cc1ccc(O)cc1)C(=O)N1CCC[C@H]1C(=O)N[C@@H](CCCNC(=N)N)C(=O)N[C@H](C(=O)N[C@@H](CCC(=O)O)C(=O)N[C@H](C(=O)NCC(=O)N[C@@H](CO)C(=O)N[C@@H](CCCCNC(=O)CC[C@H](NC(=O)CCCCCCCCCCCCCCCCCCC(=O)O)C(=O)O)C(=O)N[C@H](C(=O)N[C@@H](Cc1ccc(O)cc1)C(N)=O)[C@@H](C)O)[C@@H](C)O)[C@@H](C)O)[C@@H](C)O)[C@@H](C)O
# B6: [N-terminal(C20 diacid-gGlu), des1, 4G, 15Q, 21Q, 23Y, 30S, 31Q, 32T, 33Y]mimylin (peptide)
# peptide: {C20 diacid-γGlu}-ASGLSTAALGRLSQELHELQTYPRTETGSQTY-NH2
# SMILES: CC(C)C[C@H](NC(=O)CNC(=O)[C@H](CO)NC(=O)[C@H](C)NC(=O)CC[C@H](NC(=O)CCCCCCCCCCCCCCCCCCC(=O)O)C(=O)O)C(=O)N[C@@H](CO)C(=O)N[C@H](C(=O)N[C@@H](C)C(=O)N[C@@H](C)C(=O)N[C@@H](CC(C)C)C(=O)NCC(=O)N[C@@H](CCCNC(=N)N)C(=O)N[C@@H](CC(C)C)C(=O)N[C@@H](CO)C(=O)N[C@@H](CCC(N)=O)C(=O)N[C@@H](CCC(=O)O)C(=O)N[C@@H](CC(C)C)C(=O)N[C@@H](Cc1c[nH]cn1)C(=O)N[C@@H](CCC(=O)O)C(=O)N[C@@H](CC(C)C)C(=O)N[C@@H](CCC(N)=O)C(=O)N[C@H](C(=O)N[C@@H](Cc1ccc(O)cc1)C(=O)N1CCC[C@H]1C(=O)N[C@@H](CCCNC(=N)N)C(=O)N[C@H](C(=O)N[C@@H](CCC(=O)O)C(=O)N[C@H](C(=O)NCC(=O)N[C@@H](CO)C(=O)N[C@@H](CCC(N)=O)C(=O)N[C@H](C(=O)N[C@@H](Cc1ccc(O)cc1)C(N)=O)[C@@H](C)O)[C@@H](C)O)[C@@H](C)O)[C@@H](C)O)[C@@H](C)O
# Columns and labels:
# [1] = target: T1, human calcitonin receptor; assay: cell-based or functional assay
# [2] = target: T2, human amylin 3(a) receptor (human …); assay: cell-based or functional assay
binder,measurement,setting,value
B1,hCTR funct. EC50 (pM),[1],18 pM
same,hAmylin-R funct. EC50 (pM),[2],54 pM
B2,hCTR funct. EC50 (pM),[1],66 pM
same,hAmylin-R funct. EC50 (pM),[2],386 pM
B3,hCTR funct. EC50 (pM),[1],24 pM
same,hAmylin-R funct. EC50 (pM),[2],22 pM
B4,hCTR funct. EC50 (pM),[1],45 pM
same,hAmylin-R funct. EC50 (pM),[2],235 pM
B5,hCTR funct. EC50 (pM),[1],36 pM
same,hAmylin-R funct. EC50 (pM),[2],68 pM
B6,hCTR funct. EC50 (pM),[1],25 pM
same,hAmylin-R funct. EC50 (pM),[2],37 pM
